From article PMC11381654, “Structural insight into interleukin‐4Rα and interleukin‐5 inhibition by nanobodies from a bispecific antibody” (MedComm, 2020)

Molecular target: human IL‐4Rα (human, UniProt P24394, N‐glycosylation sites (modelled in the crystal structure; positions not given))
Experiment: cell-based or functional assay

IC50 in the IL‐4‐induced TF‐1 cell proliferation assay (blocks IL‐4 with IL‐4Rα): ~150 pM | IC50 in the IL‐13‐induced TF‐1 cell proliferation assay (blocks IL‐13 with IL‐4Rα): ~150 pM
B1: dAb1 (VHH)
VHH: QVQLVESGGGLVQPGGSLRLSCAASGDFYCMAWFRQAPGKEREAVAAIRSGGRSTYYADSVKGRFTISRDNSKNTLYLQMNSLKAEDTAVYYCAVGVDGNCRNYWGQGTLVTVSS
